Values of other authors, collected in article PMC3140970.

Biological target: IRSp53 SH3 (UniProt Q9UQB8)
Sequence (Q9UQB8 374-437): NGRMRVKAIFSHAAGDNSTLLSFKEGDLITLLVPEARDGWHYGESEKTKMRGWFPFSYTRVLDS

Eps8, sequence (Q08509 whole entry): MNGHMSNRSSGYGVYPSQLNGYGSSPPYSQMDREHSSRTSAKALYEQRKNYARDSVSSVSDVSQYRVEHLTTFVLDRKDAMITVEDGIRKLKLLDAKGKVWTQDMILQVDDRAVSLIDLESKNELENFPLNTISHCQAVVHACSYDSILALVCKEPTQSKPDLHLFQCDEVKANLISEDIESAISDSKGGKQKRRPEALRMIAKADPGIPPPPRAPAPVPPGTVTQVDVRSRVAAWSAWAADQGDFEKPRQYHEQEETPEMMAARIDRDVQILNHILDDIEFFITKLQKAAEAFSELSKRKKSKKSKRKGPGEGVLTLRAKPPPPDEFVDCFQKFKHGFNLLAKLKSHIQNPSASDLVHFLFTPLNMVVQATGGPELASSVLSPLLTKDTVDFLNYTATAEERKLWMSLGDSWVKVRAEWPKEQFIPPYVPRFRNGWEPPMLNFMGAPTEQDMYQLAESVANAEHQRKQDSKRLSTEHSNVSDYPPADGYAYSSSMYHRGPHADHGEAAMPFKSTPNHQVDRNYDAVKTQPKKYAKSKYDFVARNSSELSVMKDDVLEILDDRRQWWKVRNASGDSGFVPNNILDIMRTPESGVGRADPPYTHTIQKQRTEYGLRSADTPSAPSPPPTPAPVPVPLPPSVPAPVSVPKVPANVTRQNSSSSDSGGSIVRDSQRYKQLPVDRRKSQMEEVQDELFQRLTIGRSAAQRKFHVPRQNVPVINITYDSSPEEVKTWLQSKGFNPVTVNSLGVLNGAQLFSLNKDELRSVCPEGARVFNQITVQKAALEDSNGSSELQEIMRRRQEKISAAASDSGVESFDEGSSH

Eps8 (from UniProt Q08509)
Kd: 10 nM
